Reference: article PMC7660477

Assays:
Assay in all cases: microtubule co-sedimentation (taxol-mediated polymerisation, sucrose gradient centrifugation) with western blot quantification
EZRIN = EZRIN (UniProt P26040); settings: E18.5 forebrain, n = 3, mean ± s.e.m., parent: est. 0.10, read off a plot
VAPB = VAPB (UniProt Q9QY76); settings: E18.5 forebrain, n = 3, mean ± s.e.m., parent: est. 0.27, read off a plot
REEP1 = REEP1 (UniProt Q8BGH4); settings: E18.5 forebrain, n = 3, mean ± s.e.m., parent: est. 0.28, read off a plot
KIF5C = KIF5C (UniProt P28738); settings: E18.5 forebrain, n = 3, mean ± s.e.m., parent: est. 0.61, read off a plot
VAPA = VAPA (UniProt Q9WV55); settings: E18.5 forebrain, n = 3, mean ± s.e.m., parent: est. 0.30, read off a plot
[1] = target: dynein intermediate chain (DYNC1I1/2) (UniProt O88485); settings: E18.5 forebrain; n = 3; mean ± s.e.m.; P<0.01; parent: est. 0.55; read off a plot

- response (ratio MT pellet/lysate) (EZRIN): 0.12
- response (ratio MT pellet/lysate) (VAPB): 0.14
- response (ratio MT pellet/lysate) (REEP1): 0.05
- response (ratio MT pellet/lysate) (KIF5C): 0.6
- response (ratio MT pellet/lysate) (VAPA): 0.34
- response (ratio MT pellet/lysate) [1]: 0.29
Substance: microtubules from the forebrain of E18.5 R402H/R402H littermate controls (no Cre; wild-type Tuba1a expressed) (from UniProt P68369;P99024)
